IntAct's records for PubMed 27309818

B1: Izumo sperm-egg fusion protein 1 (Homo sapiens), Q8IYV9-1 (parent)
chain: MGPHFTLLCAALAGCLLPAEGCVICDPSVVLALKSLEKDYLPGHLDAKHHKAMMERVENAVKDFQELSLNEDAYMGVVDEATLQKGSWSLLKDLKRITDSDVKGDLFVKELFWMLHLQKETFATYVARFQKEAYCPNKCGVMLQTLIWCKNCKKEVHACRKSYDCGERNVEVPQMEDMILDCELNWHQASEGLTDYSFYRVWGNNTETLVSKGKEATLTKPMVGPEDAGSYRCELGSVNSSPATIINFHVTVLPKMIKEEKPSPNIVTPGEATTESSISLQPLQPEKMLASRLLGLLICGSLALITGLTFAIFRRRKVIDFIKSSLFGLGSGAAEQTQVPKEKATDSRQQ
B2: Sperm-egg fusion protein Juno (Homo sapiens), A6ND01-1 (parent)
chain: MACWWPLLLELWTVMPTWAGDELLNICMNAKHHKRVPSPEDKLYEECIPWKDNACCTLTTSWEAHLDVSPLYNFSLFHCGLLMPGCRKHFIQAICFYECSPNLGPWIQPVGSLGWEVAPSGQGERVVNVPLCQEDCEEWWEDCRMSYTCKSNWRGGWDWSQGKNRCPKGAQCLPFSHYFPTPADLCEKTWSNSFKASPERRNSGRCLQKWFEPAQGNPNVAVARLFASSAPSWELSYTIMVCSLFLPFLS

Variants of: B1
Conditions: with IZUMO1R

effect of a mutation on the interaction	Variant
decreasing interaction strength	R160A
decreasing interaction strength	R160E
decreasing interaction strength	E71A
decreasing interaction strength	E71K
decreasing interaction strength	H157A
disrupting interaction strength	W148A

Variants of: B2
Conditions: with IZUMO1, Q8IYV9-1

effect of a mutation on the interaction	Variant
decreasing interaction strength	W62A
decreasing interaction strength	E45A
decreasing interaction strength	E45K
decreasing interaction strength	K163E
decreasing interaction strength	K163A
disrupting interaction strength	L81A
